To fix the notation:
B1: Spt2p: transcription factor, negative regulator of HO gene transcription (protein, UniProt P06843 2-333, looked up)
Protein SPT2: SFLSKLSQIRKSTTASKAQVQDPLPKKNDEEYSLLPKNYIRDEDPAVKRLKELRRQELLKNGALAKKSGVKRKRGTSSGSEKKKIERNDDDEGGLGIRFKRSIGASHAPLKPVVRKKPEPIKKMSFEELMKQAENNEKQPPKVKSSEPVTKERPHFNKPGFKSSKRPQKKASPGATLRGVSSGGNSIKSSDSPKPVKLNLPTNGFAQPNRRLKEKLESRKQKSRYQDDYDEEDNDMDDFIEDDEDEGYHSKSKHSNGPGYDRDEIWAMFNRGKKRSEYDYDELEDDDMEANEMEILEEEEMARKMARLEDKREEAWLKKHEEEKRRRKKGIR
B2: xrs2p: yeast DNA-repair protein (protein, UniProt P33301 1-854, looked up)
DNA repair protein XRS2: MWVVRYQNTLEDGSISFISCCLQAFKTYSIGRSSKNPLIIKNDKSISRQHITFKWEINNSSDLKHSSLCLVNKGKLTSLNKKFMKVGETFTINASDVLKSTIIELGTTPIRIEFEWINEVWNIPPHLTQFRTMLSEYGISTEISINDIPANLMISDYPKSEDNSIRELYALVSTIPMKKSRFLMELCNTLLPTSKTNLKFDEMWNDMISNPEYNVFDFDPNILLSKFMRLNNIRVLTTIKSEPRLSSLLRTFNINLFAFDNIDSLYKYVDSLEASTEYLILTTTDKKENGKILCTIKTMLTSIIDGTLSAVINMKGASSRTLDNGKFDQISEGMSTILKTSRAPEVEASPVVSKKRKLNRRRVLPLDSLDFFAGGLSTKTLSENRSLTDAKRLNCGAESKTVISSPNIAEADEKHAPFLQNALKPTEDIGKKSGHSSPGAIIVSSPNLGTVNTSEDSLDKSLQSHKLPQPSLPEVAGIGSQTISSNSADYETAAVNSMDDAEVTKNFRVNHHQNIEQPSKNIRKLSNYSREISSPLQENCKSPVKELSIKEKSGTPHAFVEAIQETKNREVKRVKSTIVELKDEELSEEAINQLKNLAIVEPSNNLLRKSFDSEGNKTSRTTEKWENSLMEPEWHKRKNFKTFVKVRPKSKAHKEEGKNNTQSSDFIRNAAFLITRNYVPLKKYSKKDTTTKWGTEENEDMFALTEMERFGSNTFMSDNINSNTIQKRSQALNRFTNEDSSNEGEEDSFSFSRCSGTAASVQPLKNKIFITDEDDLGDIDDKSDRLNHRENNRNLFVVKEMNLRPNLSEECSKQSRHSRSATSRSRGSFGASNNGDGDDDDDDGPKFTFKRRKG
B3: Trm2p: yeast protein involved in DNA repair and RNA processing/modification (protein, UniProt P33753 1-639, looked up)
tRNA …: MYEQFEFSFFFFENSDNKVKYKAHLISSIKRWSIITCMRCFWTVQKSIFKARFFACRNFVKKHNYKLISTMTGSTEMVPPTMKHTVDNKRLSSPLTDSGNRRTKKPKLRKYKAKKVETTSPMGVLEFEVNDLLKSQNLSREQVLNDVTSILNDKSSTDGPIVLQYHREVKNVKVLEITSNGNGLALIDNPVETEKKQVVIIPFGLPGDVVNIKVFKTHPYYVESDLLDVVEKSPMRRDDLIRDKYFGKSSGSQLEFLTYDDQLELKRKTIMNAYKFFAPRLVAEKLLPPFDTTVASPLQFGYRTKITPHFDMPKRKQKELSVRPPLGFGQKGRPQWRKDTLDIGGHGSILDIDECVLATEVLNKGLTNERRKFEQEFKNYKKGATILLRENTTILDPSKPTLEQLTEEASRDENGDISYVEVEDKKNNVRLAKTCVTNPRQIVTEYVDGYTFNFSAGEFFQNNNSILPIVTKYVRDNLQAPAKGDDNKTKFLVDAYCGSGLFSICSSKGVDKVIGVEISADSVSFAEKNAKANGVENCRFIVGKAEKLFESIDTPSENTSVILDPPRKGCDELFLKQLAAYNPAKIIYISCNVHSQARDVEYFLKETENGSAHQIESIRGFDFFPQTHHVESVCIMKRI
B4: Cdc1p: yeast DNA-repair protein (protein, UniProt P40986 1-491, looked up)
Cell division control protein …: MVYRNRSKSVLSTHSKKSDDKAHYKSRSKKKSKSRSKKRLRIYWRYISIVWILWLGLISYYESVVVKRAMKKCQWSTWEDWPEGAESHRVGLFADPQIMDEYSYPGRPQIVNYFTRVIVDHYHRRNWKYVQYYLDPDSNFFLGDLFDGGRNWDDKQWIKEYTRFNQIFPKKPLRRTVMSLPGNHDIGFGDTVVESSLQRFSSYFGETSSSLDAGNHTFVLLDTISLSDKTNPNVSRVPRQFLDNFAMGSHPLPRILLTHVPLWRDPEQQTCGQLRESKEPFPIQKGHQYQTVIENDISQEILTKIQPEILFSGDDHDHCQISHSYPFQGKTKNAQEITVKSCAMNMGISRPAIQLLSLYNPSDLTMVNAGGEYASKTYQTELCYMPDPYKAIRMYLWGLLFSAAFIAYMHFFPKSFNNRVATIMNRVFTRPDGNTSDLPLPTSISKSKSKKSLTHSKYAVNDTRSIKQFLVNAIVLFVSVMPIFIYFYTVV
B5: Met30p: yeast protein with five WD-repeats that binds certain promoter regions (protein, UniProt P39014 1-640, looked up)
F-box protein MET30: MRRERQRMMSFEDKDKDDLDNSNSNNSSEMTDTAMMPPLKRLLITGSSDDLAQGSSGKKKMTMATRSPSSSPDLATNDSGTRVQPLPEYNFTKFCYRHNPDIQFSPTHTACYKQDLKRTQEINANIAKLPLQEQSDIHHIISKYSNSNDKIRKLILDGILSTSCFPQLSYISSLVTHMIKIDFISILPQELSLKILSYLDCQSLCNATRVCRKWQKLADDDRVWYHMCEQHIDRKCPNCGWGLPLLHMKRARIQQNSTGSSSNADIQTQTTRPWKVIYRERFKVESNWRKGHCRIQEFKGHMDGVLTLQFNYRLLFTGSYDSTIGIWDLFTGKLIRRLSGHSDGVKTLYFDDRKLITGSLDKTIRVWNYITGECISTYRGHSDSVLSVDSYQKVIVSGSADKTVKVWHVESRTCYTLRGHTEWVNCVKLHPKSFSCFSCSDDTTIRMWDIRTNSCLKVFRGHVGQVQKIIPLTIKDVENLATDNTSDGSSPQDDPTMTDGADESDTPSNEQETVLDENIPYPTHLLSCGLDNTIKLWDVKTGKCIRTQFGHVEGVWDIAADNFRIISGSHDGSIKVWDLQSGKCMHTFNGRRLQRETQHTQTQSLGDKVAPIACVCIGDSECFSGDEFGCVKMYKFDLND
B6: Sqt1p: yeast protein that interacts with Rp110p (protein, UniProt P35184 1-431, looked up)
Ribosome assembly protein SQT1: MEPQEEFITTEEVEQEIVPTVEVEQDVPVDIEGENDDDDEMMNDDEEALEVDMSNNSLTYFDKHTDSVFAIGHHPNLPLVCTGGGDNLAHLWTSHSQPPKFAGTLTGYGESVISCSFTSEGGFLVTADMSGKVLVHMGQKGGAQWKLASQMQEVEEIVWLKTHPTIARTFAFGATDGSVWCYQINEQDGSLEQLMSGFVHQQDCSMGEFINTDKGENTLELVTCSLDSTIVAWNCFTGQQLFKITQAEIKGLEAPWISLSLAPETLTKGNSGVVACGSNNGLLAVINCNNGGAILHLSTVIELKPEQDELDASIESISWSSKFSLMAIGLVCGEILLYDTSAWRVRHKFVLEDSVTKLMFDNDDLFASCINGKVYQFNARTGQEKFVCVGHNMGVLDFILLHPVANTGTEQKRKVITAGDEGVSLVFEVPN
B7: Rad51p: yeast DNA-repair protein (protein, UniProt P25454 1-400, looked up)
DNA repair protein RAD51: MSQVQEQHISESQLQYGNGSLMSTVPADLSQSVVDGNGNGSSEDIEATNGSGDGGGLQEQAEAQGEMEDEAYDEAALGSFVPIEKLQVNGITMADVKKLRESGLHTAEAVAYAPRKDLLEIKGISEAKADKLLNEAARLVPMGFVTAADFHMRRSELICLTTGSKNLDTLLGGGVETGSITELFGEFRTGKSQLCHTLAVTCQIPLDIGGGEGKCLYIDTEGTFRPVRLVSIAQRFGLDPDDALNNVAYARAYNADHQLRLLDAAAQMMSESRFSLIVVDSVMALYRTDFSGRGELSARQMHLAKFMRALQRLADQFGVAVVVTNQVVAQVDGGMAFNPDPKKPIGGNIMAHSSTTRLGFKKGKGCQRLCKVVDSPCLPEAECVFAIYEDGVGDPREEDE
B8: Ils1p: isoleucyl-tRNA synthetase (protein, UniProt P09436 1-1072, looked up)
Isoleucine--tRNA ligase, …: MSESNAHFSFPKEEEKVLSLWDEIDAFHTSLELTKDKPEFSFFDGPPFATGTPHYGHILASTIKDIVPRYATMTGHHVERRFGWDTHGVPIEHIIDKKLGITGKDDVFKYGLENYNNECRSIVMTYASDWRKTIGRLGRWIDFDNDYKTMYPSFMESTWWAFKQLHEKGQVYRGFKVMPYSTGLTTPLSNFEAQQNYKDVNDPAVTIGFNVIGQEKTQLVAWTTTPWTLPSNLSLCVNADFEYVKIYDETRDRYFILLESLIKTLYKKPKNEKYKIVEKIKGSDLVGLKYEPLFPYFAEQFHETAFRVISDDYVTSDSGTGIVHNAPAFGEEDNAACLKNGVISEDSVLPNAIDDLGRFTKDVPDFEGVYVKDADKLIIKYLTNTGNLLLASQIRHSYPFCWRSDTPLLYRSVPAWFVRVKNIVPQMLDSVMKSHWVPNTIKEKRFANWIANARDWNVSRNRYWGTPIPLWVSDDFEEVVCVGSIKELEELTGVRNITDLHRDVIDKLTIPSKQGKGDLKRIEEVFDCWFESGSMPYASQHYPFENTEKFDERVPANFISEGLDQTRGWFYTLAVLGTHLFGSVPYKNVIVSGIVLAADGRKMSKSLKNYPDPSIVLNKYGADALRLYLINSPVLKAESLKFKEEGVKEVVSKVLLPWWNSFKFLDGQIALLKKMSNIDFQYDDSVKSDNVMDRWILASMQSLVQFIHEEMGQYKLYTVVPKLLNFIDELTNWYIRFNRRRLKGENGVEDCLKALNSLFDALFTFVRAMAPFTPFLSESIYLRLKEYIPEAVLAKYGKDGRSVHFLSYPVVKKEYFDEAIETAVSRMQSVIDLGRNIREKKTISLKTPLKTLVILHSDESYLKDVEALKNYIIEELNVRDVVITSDEAKYGVEYKAVADWPVLGKKLKKDAKKVKDALPSVTSEQVREYLESGKLEVAGIELVKGDLNAIRGLPESAVQAGQETRTDQDVLIIMDTNIYSELKSEGLARELVNRIQKLRKKCGLEATDDVLVEYELVKDTIDFEAIVKEHFDMLSKTCRSDIAKYDGSKTDPIGDEEQSINDTIFKLKVFKL

For the assay, the system named is total yeast genomic DNA. Briefly: Yeast proteome chip probed with labeled genomic DNA. The class given is binding. To be noted: Cy3-labeled genomic DNA, visual inspection. The source says: Protein-DNA and protein-RNA interactions are important for many fundamental biological functions such as transcription regulation, chromosome segregation and maintenance, and RNA transport and processing (Williamson, 2000, Nat. Struct. Biol. 7(10):834-7). To explore the possibility of using a proteome chip to identify proteins that bind to DNA or RNA molecules, total yeast genomic DNA was labeled using Cy3-CTP and Klenow fragment, and polyA^+ was labeled using a biotinylated psoralen-derivative (31). Each probe was incubated with a different proteome chip (FIG. 3A).
The protein-nucleic acid interaction was assayed as follows. The nucleic acid robes were labeled as described by Winzeler et al. (1999, Science 285:901). Blocked proteome chips were washed three to five times in PBS buffer, and the extra liquid on the glass surface was removed by tapping the slides vertically on a KIMWIPE™. 200 μl of labeled nuclei acid probe ([…] poly(dC/dG); 100-300 mM NaCl; 50-300 mM HEPES, pH 7.0-8.5; 10 mM MgCl2) was added to the proteome chip and immediately covered by a hydrophobic plastic cover slip (GRACE BIO-LABS™, USA). After trapped air bubbles were removed, the chip was incubated in a humidity chamber in the dark at room temperature (“RT”) for one hour. To remove the cover slip, the chip was immersed into large volume of PBS buffer(>50 ml), so that the slip would float away. The chip was then moved to a second PBS bath (>50 ml) and washed 3×5 min with shaking in the dark at RT. To completely remove the liquid on the chip, the chip was spun to dryness at 1500-2000 rpm for 5-10 min at RT.
As to B1, the “binding of genomic DNA probe” value is given as “identified”.

Take B2: the “binding of genomic DNA probe” value is “identified”.

With B3, the “binding of genomic DNA probe” value is reported as “identified”.

As for B4, the “binding of genomic DNA probe” value was “identified”.

Take B5: the “binding of genomic DNA probe” value is reported as “identified”.

Regarding B6, the “binding of genomic DNA probe” value is given as “tested positive”.

For B7, the “binding of genomic DNA probe” value is listed as “identified”.

As for B8, the “binding of genomic DNA probe” value is recorded as “identified”.
